Measurements reported in the RNAGym collection of RNA variant scans (doi:10.1073/pnas.2313332121).

B1: TPR t1 (parent)
chain: GACCAAUCUGCCCUCAGAGCUCGAGAACAUCUUCGGAUGCAGAGGAGGCAGGCUUCGGUGGCGCGAUAGCGCCAACGUCCUCAACCUCCAAUGCAUCCCACCACAUGAUGAUGCCUGAAGAGCCUUGGUUUUUUG

Variants of: B1
Assay: polymerase ribozyme fitness, log enrichment relative to wild type (log ratio); higher = more active; in vitro selection for triplet polymerase activity
In short: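 In triplicate, a single round of in vitro selection was run on each mutant library, PCR-built and transcribed, covering one subunit of a heterodimeric triplet polymerase ribozyme. Frozen incubation at −7 °C followed annealing with a biotinylated primer, partner subunit and triplets, and extended constructs were then gel-excised, streptavidin-captured and taken through RT-PCR. Fitness is the logarithm of genotype enrichment over wild-type enrichment, from inverse-variance-weighted replicate averages of Illumina-sequenced inputs and outputs. […] only genotypes with ≥10 input reads and ≥1 read per output were kept.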

First: GACCAAUCUGCCCUCAGAGCUCGAGAACGUCUUCGGAUGCAGAGGAGGCAGGCUUCGGUGGCGCGAUAGCGCCAACGUCCUCAACCUCCAAUGCAUCCCACCAAAUGAUGAUGCCUCAAGAGCCUUGGUUCUUUG
Second: GACCAAUCUGCCCUCAGAGCUCGAGAACAUCUUCGGAUGCUGAGGAGGCAGGCUUCGGUGGUGCGAUAGCGCCAACGUCCUCAACCUCCAAUGCAUCCCACCACAUGAUGAUGCCUGAAGAGCCUUGGUUUUUUG
The “polymerase ribozyme fitness (log ratio)” value of the first is lower: -6 for the first, -1.86 for the second.

Going from GACCAAUCUGCGCUCAGAGCUCGAGAACAUCUUCGAAUGCAGAGGAGGCAGGAUUCGGUGGCGCGAUAGCGCCGACGUCCUCAACCUCUAAUGCAUCCCACCACAUGAUGAUGCCUGAAGAGCCUUGGUUUUUUG to GACCAAUCUGCCCUCAGAGCUCGAGAACAUCUUCGGAUGCAGACGAGGCAGGCUUCGAUGGCGCGAUAGCGCCAACGUCCUCAACCUCCAGCGCAUCCCACCACAUGAUGAUGCCUGAAGAGCCUUGGUUUUUUG, the “polymerase ribozyme fitness (log ratio)” value falls from -1.5 to -3.08.

Compared with GACCAAUCUGCCAUCAGAGCUGGAGAACAUCUUCGGAUGCAGAGGAGGCAGGCUUCGGUGGCGCGAUAUCGCCAACGUCCUCAACCUCCAAUGCAUCCCACCACAUGAUGAUGCCUGAAUAGCCUUGGUUUUUUG, GACCAAUCUGCCCUCAGAGCUCGAGAACAUCUUCAGAUGCAGAGGAGGCAGGCUUCGGUGGCGCGAUAGCGCCAACGUCCUCAACCUCCAAUGCAUCCCACCACAUGAUGAUGCCUGAAGAGCCUUGGAUUUUUG is lower in “polymerase ribozyme fitness (log ratio)” value: -1.67 for the first, -5.19 for the second.

First: GACCAAUCUGCCCUCAGAGCUCGAGAACAUCUUCGGGUGCAGAGGAGGCAGGCUUCGGUGGCGCGAUAGCGCCAACGUCUUCAACCUCCAAUGCAUCCCACCACAUGAUGAUGCCUGAAGAGCCUUGGUUUUUUG
Second: GACCAAUCUGCCCUCAGAGCUCGAGAACAUCUUCGGAUGCAGAGGAGGCACACUUCGGUGGCGCGAUAGCGCCAACGUCCCCAACCUCCAAUGCAUCCCACCACAUGAUGAUGCCUGAAGAGCCUUGGUUUUUUG
The “polymerase ribozyme fitness (log ratio)” value of the first is higher: -2.46 for the first, -5.02 for the second.

First: GACCAAUCUGCCCUCAGAGCUCGAGAACAUCUUCGGAUGCAGAGGAGGCAGGCUUCGGUGGCUCGAUAGCGCCAACGUCCUCAAACUCCAAUGCAUCCCACCACAUGAUGAUGCCUGAAGAGCCUUGGUUUUUUG
Second: GACCUAUCUGCCCUCAGAGCUCGAGAACAUCUUCGGAUGCUGAGGAGGCAGGCUUCGGUGGCGCGAUAGCGCCAACGUCCUGAACCUCCAAUGCAUCCCACCACAUGAUGAUGCCUGAAAAGCCGUGGUUUUUUG
The “polymerase ribozyme fitness (log ratio)” value of the first is lower: -3.39 for the first, -2.77 for the second.

Compared with GACCAAUCUUCCCUCAGAGCUCGAGAACAUCUUCGGAUGCAGAGGAGGCACGCUUCGGUGGCGCGAUAGCGCCAACGUCCUCAACCUCCAAUGCAUCCCACCACACGAUGAUGCCUGAAGAGCCUUGGUUUUUUG, GACCAAUCUGCCCUCAGAGCUGGAGAACAUCUUCGGAUGCAUAGGAGGCAGGCUUCGGUGGCGCGAUAGCGCCAACGUCCUCAUCCUCCAAUGCAUCCCACCACAUGAUGAUGCAUGAAGAGCGUUGGUUUUUUG is higher in “polymerase ribozyme fitness (log ratio)” value: -3.5 for the first, -3.07 for the second.

GACCAAUCUGACCUCAGAGCUCGAGAACAUCUUCGGAUGCAGAGGAGGCAGGCUUCGGUGCCGCGAUAGCGCCAACGUCCUCAACCUCCAAUGCAUCCCCCCACAUGAUGAUGCCUGAAGUGCCUUGGUUUUUUG and GACCAAUCUGCCCUCAGAGCUCGAGAACAUCUUCGGAUGCAGAGGAGGCAGGCUUCGGUGGCGCGAUAGUGCCAACGUCCUCAACCUGCAAUGCAUCCCACCACAUGAUGAUGCCUGAAGAGCCUUGGUUUUUUG are within 0.2 log units of each other in “polymerase ribozyme fitness (log ratio)” value: -1.61 for the first, -1.63 for the second.

Going from GACCAAUCUGCCCUCAGAGCUCGAGGACAUCUUCGGAUGCAGAGGAGGCAGGCUUCGGUGGCGCAAUAGCGCCAACGUCCUCAACCUCCAAUGCAUCCCACCACAUGAUGAUGCCUGAAGAGCCUUGGUUUUUUG to GACCAAUCUGCACUCAGAGCUCGAGAACAUCUUCGCAUGCAGAGGAGGCAGGCUGCGGUGGCGCGAUAGCGUCAACGUCCUCAACCUCCAAUGCAGCCCACCACAUGAUGAUGCCUGAAGAGCCUUGGUUUUUUG, the “polymerase ribozyme fitness (log ratio)” value rises from -5.09 to -4.76.

Going from GACCAAUCUGCCGUCAGAGCUCGAGAACAUCUUCGGAUGCAGAGGAGGCAGGCUUCGGUGGCGCGAUAGCGCAAACGUCCUCAACCUCCCACGCAUCCCACCACAUGAUGAUGCCUGAAGAGCCUAGGUUUUUUG to GACCAAUCGGCCCUCAGAGCUCGAGAACAUCUUCGGAUGCAGAGGAGGCAGGCAUCGGUGGCGCGAUACCGCCAACGUCCUCAACCUCCAAUGCAUCCCACCACAUGAUGAUGCCUGAAGAGCCUUGGCUUUUUG, the “polymerase ribozyme fitness (log ratio)” value rises from -5.92 to -2.97.

GACCAAUCUGCCCUCAGAGCUCGAGAACAUCUUCGGAUGCAGAGGAGGCAGGCUUCGGUGGCGCGAUAGCGCCAACGUCCUCAACCUCCAAUGCAUACCACCACAUGAUGAUGCCUGAAUAGCCUUGGUUUUUUG and GACCAAUCUGCCCUCAGAGCUCGAGAAUAUCUUAGGAUGCAGAGGAGGCAGGGUUCGGUGGCGCGAUAGCGCCAACGUCCUCAACCUCCAAUGCAUCCCACCACAUGAUGAUGCCUGAAGAGCAUUGGUUUUUUG are within 0.2 log units of each other in “polymerase ribozyme fitness (log ratio)” value: -4.3 for the first, -4.41 for the second.

Going from GACCAAUCUGCCCUCAGAGCUCGAGAACAUCUUCGGAUGCAGAGGAGGCAGGCUUCGGUGGCGCGAUAGCGCUAACGUCCUCAACCUCCAAUGCAUCCCACCACAUGAUGAUGCCUGAAGAGCAUUGGUUUUUUG to GACCAAUCUGCUCUCAGAACUCGAGAACAUCUUCGGAUGCAGAGGAGGCAGGCUUCGGUGGCGCGAUAGCACUAACGUCCUCAACCUCCAAUGCAUCCCACCACAUGAUGAUGCCUGAAGAGACUUGGUUUUUUG, the “polymerase ribozyme fitness (log ratio)” value falls from 2.11 to -1.42.

Going from GACCAAUCUGCCCACAGAGCUCGAGAACAUCUUCGGAUGCACAGGAGGCAGGCUUCGGUGGCGCGAUAGCGCCAACGUCCUCAACCUCCAAUGCAUCCCACCACAUGAUCAUGCCUGAAGAGCCUUGGUUUUUUG to GACCAAUCUUCCCUCAGAGCUCGAGAACAUCUUCGGAUGCAGAGGAGGCAGGCUUCGGUGGCGCGAUAGCGCCAACGUCCUCAACCUCCAAUGCAUCCCACCACAUGAUGAUGCCUGUAGAGCCUUGGUUUUUUG, the “polymerase ribozyme fitness (log ratio)” value rises from -5.7 to -0.131.

Compared with GACCAAUCUGCCCUCAGAGCUCGAGAACUUCUUCGGAUGCAGAGGAGGCAGGCUUAGGUGGCGCGAUAGCGCCAACGUCCUCAACCUCCAAUGCAUCCCACCACAUGAUGAUGCCUGAAGAGCCUUGGUUUUUUG, GACCAAUCUGCCCUCAGAGCUCGAGAAUAUCUUCGGAUGCAGAGGAGGCAGGCUUCGGUGGCACGAUAGCGCCAACGUCCUCAACCUUCAAUGCAUCCCACCACAUGAUGAUGCCUGAAGAGCCUUGGUUUUUUG is lower in “polymerase ribozyme fitness (log ratio)” value: -2.25 for the first, -3.69 for the second.

Going from GACCAAUCUGCCCUCAGAGCUCGAGAACAUCUUCGGAUGCAGAGGAGGCAGGCUUCGCUGGCGCGAUAGCGCCAACGUCCUCAACCUCCAAUGCAUUCCACCACAUGAUGAUGCCGGAAGAGCCUUGGUUUUUUC to GACCAAUCUGCCCUCAGAGCUCGAGAACAUCUUUGGAUGCGGAGGAGGCAGGUUUCGGUGGCGCGAUAGCGCCAACGUCCUCAACCUCCAAUGCAUCCCACCACAUGAUGAUGCCUGAAGAGCCUUGGUUUUUUG, the “polymerase ribozyme fitness (log ratio)” value falls from -3.26 to -4.95.

First: GACCAAUCUGCCCUCAGAGCUCGAGAACAUCUUCGGAUGCAGAGGAGUCAGGCUUCGGAGGCGCGAUAGCGCCAACGUCCUCAACCUCCAAUGCAUCCCACCACAUGAUGAUGCCUGAAUAGCCUUGGUUUUUUG
Second: GACCAAUCUGCCCUCAGAGCUCGAGAACAUCUUCGGAUGCAGAGGAUGCAGGAUUCGGUGGCGCGAUAGCGCCAACGUCCUCAACCUCCAAUGCAUCCCACCACAUGAUGAUGCCUGAAGAGCCUUGGUUUUUUG
The “polymerase ribozyme fitness (log ratio)” value of the first is higher: -0.541 for the first, -1.95 for the second.

Compared with GACCAAUCUGCCCUCAGAGCUCGAGAACAUCGUCGGAUGCAGAGGAGGCAGGCUUCGGUGGCGCGAUUGUGCCAACGUCAUCAACCUCCAAUGCAUCCCAUCACAUGAUGUUGCCUGAAGAGCCUGGGUUUUUUG, GACCAAUCUGCCCUCAGAGCUCGAGAACAUCUUCGGAUGCAGAGGAGGCAGGCUUCGGUGGCGCGAUAGCGCCAACGUCCUAAACCUCCAAUGCAUCCCACAACAUGAUGAUGUCUGAAGAGCCUUGGUUUUUUG is higher in “polymerase ribozyme fitness (log ratio)” value: -8.12 for the first, -4.27 for the second.

First: GACCAAUCUGCCCUCAGAGCUCGAGAACAUCUUCGGAUGAAGAGGAGGCAGGCUUCGGUGCCGCGAUAGCGCCAACGUGCUCAACCUCCAAUGCAUCCCACCACAUGAUGAUGCCUGAAGAGCCUUGGUUUUUUG
Second: GACCCAUCUCCCCUCAGAGCUCGAGAACAUCUUCGGAUGCAGCGGAGGCAGGCUUCGGUGGCGCGAUAGCGCCAACGUCCUCAACCUCCAAUGCAUCCCACCACAUGAUGAUGCCUGAAGAGCGUUGGUUUUUUG
The “polymerase ribozyme fitness (log ratio)” value of the first is lower: -3.56 for the first, -1.41 for the second.

Compared with GACCAAUCUGCCCUCAGAGCUCGAGAACAUCUUCGGAUGCAUAGGAGGCAGGCUUCGGUGGCGCGAUAGCUCCAACGUCCUCAACCUCCAAUGCAUCCCACCACAUGAUGAUGCCUGAAGAGCCUUUGUUUUUUG, GACCAAUCUGCGCUCAGUGCUCGAGAACAUCUUCGGAUGCAGAGGAGGCAGGCUUCGGUGGCGCGAUAGCGCCAACGUCCUCAACCUCCAAUGCAUCCCACCACAUGAUGAUGCCUGAAGAGCCUUGGUUUUUUG is higher in “polymerase ribozyme fitness (log ratio)” value: -2.72 for the first, -1.46 for the second.

Compared with GACCGAUCUGCCCUCAGAGCUCGAGAACAUCUUCGGAUGCAGAGGAGGCAGGCUUCGGUGGCGCGAUAGCGCCAACGUCCUCGACCUCCAAUGCAUCCCACCACAUGAUAAUGCCUGAAGAGCCUUGGUUUUUUG, GACCAAUCUGCCCUCAGAGCUCGAGAACAUCUUCGGAUGCAGAGGAGGUAGGCUUCGGUGGCGCGAUAGCACCAACGUCCUCAACCUCCAAUGCAUCCCACCACAUGAUGAUGCCUCAAGAGCCUUGGUUUUUUG is lower in “polymerase ribozyme fitness (log ratio)” value: -2.14 for the first, -6.24 for the second.

First: GACCAAUCUGGCCUCAGAGCUCGAGAACAUCUUCGGAUGCAGAGGAGGCAGGCUUCGGUGGCGCGAUAGCGCCAACGUCCUCAACCUCCAAUGCAUCCCACCACAUAAUGAUGCCUGAAGAGCCUUGGUUUUUUG
Second: GACCAAUCGGCCCUCAGAGCUCGAGAACAUCUUCGGAUGCAGAGGACGCAGGCUUCGGUGGCGCGAUAGCGCCAACGUCUUCAACCUCCAAUGCAUCCCACCACAUGAUGAUGCCUGAAGAGCCUUGGUUUUUUG
The “polymerase ribozyme fitness (log ratio)” value of the first is lower: -4.44 for the first, -3.21 for the second.

Compared with GACCAAUCUGCCUUCAGAGUUCGAGAACAUCUUCGGAUGCAGAGGAGGCAGGCUUCGGUGGCGCGAUAGCGCCAACGUCCUCGACCUCCAAUGCAACCCACCACAUGAUGAUGCCUGAAGAGCCUUGGUUUUUUG, GACCAAUCUGACCUCAGAGCACGAGAACAUCUUCGGAUGCAGAGGAGGCCGGCUUCGGUGGCGCGAUAGCGCCAACGUCCUCAACCUCCAAUGCAUCCCACCACAUGAUGAUGCCUGAAGAGCCUUGGUUUUUUG is higher in “polymerase ribozyme fitness (log ratio)” value: -3.34 for the first, -1.95 for the second.
